Results reported in patent US20230391881A1 (UNIVERSITY OF VIRGINIA PATENT FOUNDATION, published 2023).
Values belong to the binder of their own block, whether it stands above or below them.

Key:
[1] = target: T1, Chi-G4S-DR5 (chimeric DR5: human DR5 extracellular domain, G4S linker, mouse DR5 transmembrane and … (chimeric: human DR5 ECD, mouse DR5 TM …)); assay: flow cytometry on Chi-G4S-DR5 stable 4T1 cells (FIG. 15A)
T1 construct: Stably expressed on murine 4T1 cells; also called Chimeric human-mouse DR5 G4S

FOLR1 = target: T2, FOLR1 (UniProt P15328 25-234); assay: immunoprecipitation, immunoblot with commercial FOLR1 antibody (FIG. 14C)
T2 construct: also called folate receptor alpha
T2 sequence (P15328 25-234 limits assumed): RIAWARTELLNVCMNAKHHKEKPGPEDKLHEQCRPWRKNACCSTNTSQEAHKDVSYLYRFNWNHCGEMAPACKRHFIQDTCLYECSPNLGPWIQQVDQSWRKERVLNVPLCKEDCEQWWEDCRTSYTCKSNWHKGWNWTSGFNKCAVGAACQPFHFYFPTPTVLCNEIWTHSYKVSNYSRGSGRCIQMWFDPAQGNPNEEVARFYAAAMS

binding result [1]: binds
B1: Tigatuzumab (antibody, human IgG1, kappa, L234A L235A, V domains shown)
VH: EVQLVESGGGLVQPGGSLRLSCAASGFTFSSYVMSWVRQAPGKGLEWVATISSGGSYTYYPDSVKGRFTISRDNAKNTLYLQMNSLRAEDTAVYYCARRGDSMITTDYWGQGTLVTVSS
VL: DIQMTQSPSSLSASVGDRVTITCKASQDVGTAVAWYQQKPGKAPKLLIYWASTRHTGVPSRFSGSGSGTDFTLTISSLQPEDFATYYCQQYSSYRTFGQGTKVEIKR
notes: also called clinical tigatuzumab antibody

binding result (FOLR1): binds
B2: Farletuzumab (antibody, V domains shown)
VH: EVQLVESGGGVVQPGRSLRLSCSASGFTFSGYGLSWVRQAPGKGLEWVAMISSGGSYTYYADSVKGRFAISRDNAKNTLFLQMDSLRPEDTGVYFCARHGDDPAWFAYWGQGTPVTVSS
VL: DIQLTQSPSSLSASVGDRVTITCSVSSSISSNNLHWYQQKPGKAPKPWIYGTSNLASGVPSRFSGSGSGTDYTFTISSLQPEDIATYYCQQWSSYPYMYTFGQGTKVEIKR
notes: also called clinical anti-FOLR1, farletuzumab
